This is an account of results in patent US20150283263A1 (ADC THERAPEUTICS S A, published 2015).

Test [1] has as its target T1, CD25 (human, UniProt P01589 22-272).
T1 construct: whole, on cells; Endogenous CD25 on cell lines; also called surface CD25 on Karpas299 and SU-DHL-1 cells
T1 sequence (looked up): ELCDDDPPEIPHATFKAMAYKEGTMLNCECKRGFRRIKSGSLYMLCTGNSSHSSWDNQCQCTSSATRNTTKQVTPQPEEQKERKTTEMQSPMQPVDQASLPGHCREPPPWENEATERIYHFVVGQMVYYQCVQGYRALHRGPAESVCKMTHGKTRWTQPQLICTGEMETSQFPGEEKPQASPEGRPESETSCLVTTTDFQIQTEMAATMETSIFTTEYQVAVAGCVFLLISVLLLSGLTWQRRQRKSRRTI
The test is described as follows: flow cytometry on SU-DHL-1 cells (surface CD25), average of four experiments. On the procedure:
(§1) Karpas299 and SU-DHL-1 anaplastic large cell lymphoma (ALCL)-derived cell lines have been previously reported to express CD25 (2,3). To confirm their expression profile, CD25 surface expression was analyzed by flow cytometry.
(§2) Surface CD25 expression on Karpas and SU-DHL-1 was determined by flow cytometry. Graphs represent the average of three (Karpas299) or four independent experiments (SU-DHL-1). EC₅₀ values are reported in ng/ml.
(A flow cytometer gives signals particle by particle.)

Test [2] addresses T1, CD25. Kind of test: flow cytometry on Karpas299 cells (surface CD25), average of three experiments. On the procedure: as §1, §2

B1: HuMax-TAC (antibody, IgG1, V domains shown)
VH: QVQLVQSGAEVKKPGSSVKVSCKASGGTFSRYIINWVRQAPGQGLEWMGRIIPILGVENYAQKFQGRVTITADKSTSTAYMELSSLRSEDTAVYYCARKDWFDYWGQGTLVTVSS
VL: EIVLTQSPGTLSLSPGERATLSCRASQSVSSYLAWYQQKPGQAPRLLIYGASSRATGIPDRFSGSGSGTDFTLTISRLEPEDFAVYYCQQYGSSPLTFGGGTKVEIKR
notes: also called AB12; Antibody AB12
B1: the EC50 (as a rule, the concentration at which the effect is half-maximal) with CD25 [1] is 0.0341 µg/mL; in the test with CD25 [2], 0.0202 µg/mL.
